What was measured:
[1] = molecular target: T1, recombinant Crtac1B fragment #5 (human, UniProt Q9NQ79 28-606); experiment: antigen immobilized ELISA; reference fCrtac1B (1-609)
T1 construct: also called fCrtac1B (1-608)
T1 sequence: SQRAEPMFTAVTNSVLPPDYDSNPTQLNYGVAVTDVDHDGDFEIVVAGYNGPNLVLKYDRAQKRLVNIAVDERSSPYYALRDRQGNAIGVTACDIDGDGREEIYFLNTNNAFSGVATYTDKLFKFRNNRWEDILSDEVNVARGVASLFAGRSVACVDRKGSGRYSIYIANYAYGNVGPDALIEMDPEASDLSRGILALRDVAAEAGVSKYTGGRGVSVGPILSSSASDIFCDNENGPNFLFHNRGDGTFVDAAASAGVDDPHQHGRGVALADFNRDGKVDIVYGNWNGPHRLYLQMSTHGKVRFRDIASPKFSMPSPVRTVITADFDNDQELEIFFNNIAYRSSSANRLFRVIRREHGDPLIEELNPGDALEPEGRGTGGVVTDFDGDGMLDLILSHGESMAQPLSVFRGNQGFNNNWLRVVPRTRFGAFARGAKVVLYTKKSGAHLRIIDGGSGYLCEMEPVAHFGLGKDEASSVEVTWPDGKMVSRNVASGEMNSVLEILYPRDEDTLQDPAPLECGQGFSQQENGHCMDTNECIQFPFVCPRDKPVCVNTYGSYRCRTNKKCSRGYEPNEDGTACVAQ
Protocol: The positive antigen and the negative control were diluted to a concentration of 20 μg/mL with dilution buffer I (20 mM potassium phosphate buffer (pH 7.4), 150 mM NaCl). A positive antigen (50 μL) and a negative control (50 μL) were added to each well of a 96 well plate, respectively. Then, the plate was incubated at 4° C. overnight, and the positive antigen and the negative control were immobilized in the well to obtain an antigen immobilized plate. Each well was washed twice with a washing solution (250 μL, 0.05% Tween (registered trademark) 20/20 mM potassium phosphate buffer (pH 7.4), 150 mM NaCl). To each well was added a blocking buffer (250 μL, 5% skim milk/20 mM potassium phosphate buffer (pH 7.4), 150 mM NaCl), and blocked at room temperature for 90 minutes. Culture supernatant (50 μL) of each hybridoma selected by primary screening was added to each well, and the cells were incubated at 37° C. for 1 hour. Each well was washed three times with a washing solution (250 μL). The HRP-labeled anti-mouse IgG antibody (MBL, product number 330) was diluted 1:1,000 with dilution buffer II (1% skim milk/20 mM potassium phosphate buffer (pH 7.4), 150 mM NaCl). […] The plate was set in a microplate reader (Thermo Fisher Scientific, Varioskan (registered trademark) Flash), and the color development intensity at 655 nm was measured for each well. […]

[2] = molecular target: T2, antigen peptide P3 (BSA conjugate in the primary screening) (human, NH2-PEG6 at the N-terminus; C-terminal amide; disulfide bond between the two cysteine residues; carrier protein (BSA in the screening ELISA, KLH for immunization) conjugated to the N-terminal amino …); experiment: primary screening ELISA, BSA-conjugated antigen peptide immobilized, hybridoma culture supernatant
T2 peptide: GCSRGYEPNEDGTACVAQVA
Protocol: In order to select hybridomas producing monoclonal antibodies reactive to the antigen peptide, the culture supernatant of each hybridoma was measured by ELISA. In the primary screening, as a positive antigen, a peptide to which BSA was conjugated was used as a carrier protein for each of the antigen peptides P1, P2 and P3. Specific operations were as follows.
The positive antigen was diluted with PBS to a concentration of 1 μg/mL. Positive antigen (50 μL) was added to each well of a 96 well plate. Then, the plate was incubated at 4° C. for 17 hours, and a positive antigen was immobilized in the well to obtain an antigen immobilized plate. Each well was washed three times with PBS (250 μL). To each well was added a blocking buffer (250 μL, 0.5% skim milk/PBS) and blocked at room temperature for 1 hour. Culture supernatant (50 μL) of each hybridoma was added to each well, and the cells were incubated at room temperature for 1 hour. Each well was washed three times with PBS (250 μL). An ALP-labeled anti-mouse IgG goat antibody (SBI, product number 1030-04) was diluted 1:2,500 with PBS. A solution (50 μL) of this labeled antibody was added to each well, and the well was incubated at room temperature for 30 minutes. Each well was washed three times with PBS (250 μL). […] The plate was set in a microplate reader, and the emission intensity was measured for each well.

binding relative to the binding to fCrtac1B (1-609) [1]: ~0.1 fold | binding result [2]: binds
B1: 15C2 antibody (monoclonal antibody derived from the hybridoma of clone 15C2) (antibody, mouse IgG1, kappa, V domains shown)
VH: EVQLQQFGAELVKPGASVKISCKASGYTFTDYNMDWVKQSHGKSLEWIGDINPNYDSSSYNQKFKGKATLTVDKSSSTAYMELRSLTSEDTAVYYCTRSGGTYWGQGTLVTVSA
VL: DIQMNQSPSSLSASLGDTITITCHASQNINVWLSWYQQKPGNIPKLLIYKASNLHTGVPSRFSGSGSGTGFSLTISSLQPEDIATYYCQQAQSYPRTFGGGTKLEIKR
notes: Mouse IgG1; Used as hybridoma culture supernatant (ELISA) or purified from supernatant (IB, IP); also called anti-Crtac1B antibody; antibody of the present embodiment

— patent US20250296994A1 (SYSMEX, published 2025)
